Measurements taken from the supplement of paper PMC9170038.

System: MS2 coat protein
Experiment: apparent KD of MS2 coat protein; designed switch direction (-1 OFF switch, 1 ON switch): -1; higher = weaker reporter binding
Outline: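 RNA switches sharing common flanks were transcribed by stalled E. coli RNA polymerase on Illumina chips. A doubling series of SNAP-549-labelled MS2 coat protein, from 0.7 or 1.5 nM to 3 µM, was applied in Tris-HCl pH 7.5 buffer with KCl, MgCl2, BSA, DTT, tRNA and Tween-20. Each step lasted 0.8–1.5 h at the bottom of the series and 10–20 min at the top. Normalised cluster fluorescence was curve-fitted, giving apparent KD as the per-design median over clusters.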

[1] = Eterna round: R95, input ligand: FMN 200 uM
[2] = Eterna round: R95, input ligand: microRNA oligo, concentration not stated
[3] = Eterna round: R95, input ligand: none
[4] = input ligand: microRNA oligo, concentration not stated

Sequence | apparent KD of MS2 coat protein [1] | apparent KD of MS2 coat protein [2] | apparent KD of MS2 coat protein [3] | apparent KD of MS2 coat protein (input ligand: FMN 200 uM) | apparent KD of MS2 coat protein (input ligand: none) | apparent KD of MS2 coat protein [4]
GACCAACGGGUUUACCUUUACAUGAGGAUCACCCAUGUCGCAAGCUUUUUCUCGGGUCCAAUCUUAUAAAUAUUAAU [Legedi] (puzzle: Sensor v3, turn-off variant 1) | 0.144 µM | 0.314 µM | 0.179 µM | – | – | –
GAAGUAUGAGUUAGGAUAUGAUGAUUUUUAUUAAAUCAGAAGGAACUUGAGGAUCACCCAAGUAAAGAAUUGGU [JR_BMEx4_Sub070] (Eterna round: R97, puzzle: Brourd's mod of Exclusion 4) | – | – | – | 0.0161 µM | 0.0156 µM | –
AUUAGUAAUAAGGAUAUCACUAGCCUCGGCUAGUGAGAAGGUAUUACAUGAGGAUCACCCAUGUGAUUAAUUAA [E6/5-A2] (Eterna round: R97, puzzle: Exclusion 6) | – | – | – | 0.463 µM | 0.0797 µM | –
CCCACAUGAGGAUAUCCAUCUGGAUCAGACAAGAUCCUGAUGGAGAAGGUACAUGAGGAUCACCCAUGUGUGGG [Mat - Exclusion 4 - Eli Mod - D60] (Eterna round: R97, puzzle: Exclusion 4) | – | – | – | 0.189 µM | 0.267 µM | –
GUCAUGAUAGGAUAUUACGGACGGAACAUGAGGAUCACCCAUGUGUCCCAAUCCAACUGAUAAGAAGGAUCAUGGC [Eternabot (Original) Solution 34] (Eterna round: R97, puzzle: Exclusion 5) | – | – | – | 0.0188 µM | 0.0145 µM | –
AAGCAUUGCCAAAGGUAGUGCUUAACAUGAGGAUCACCCAUGUAGGAUAUGGUAGGCAAAGCUUACCAGAAGGACAUGAUAAUU [Mat - Exclusion NG 3 - Mod of JL - D14] (Eterna round: R96, puzzle: Exclusion NG 3) | – | – | – | 0.43 µM | 0.0708 µM | 0.0615 µM
GCCGUAAAUGUGAGGAUAUACCUAUGGAAACAUAGGUAGAAGGCACAUGAGGAUCACCCAUGUUCUUAAUCGGC [Mat - Exclusion 4 - Eli Mod - D2] (Eterna round: R97, puzzle: Brourd's mod of Exclusion 4) | – | – | – | 0.689 µM | 0.212 µM | –
GACAAGGUGUAGGAUAUGCUUAGCCUUAAGAAAGCAGAAGGACAAACUUGAGGAUCACCCAAGUGGUCCAAACA [Diraveti] (Eterna round: R97, puzzle: Exclusion 6) | – | – | – | 0.0655 µM | 0.0196 µM | –
ACAUGAGGAUCACCCAUGUAAUCAUGAUGGCUGAUGUAGAGCUAGGAUAUGAGUGGCUUUCUAUCUCAGAAGGAGCUAGACUGG [Deportation 41 - Jieux - Exclusion NG 3] (Eterna round: R96, puzzle: Exclusion NG 3) | – | – | – | 0.0293 µM | 0.0349 µM | 0.0181 µM
ACGAGGUCAGGAUAUACAGAGAGAAGGAGUUGGUUGAGGUAACAUGAGGAUCACCCAUGUAGAAGGGACUGGGA [JR_Exclu2_Sub081] (puzzle: Exclusion 2) | 0.048 µM | 0.0312 µM | 0.0349 µM | – | – | –
GGAACGCGAGGAUAUACAUAGCCGGAAACGGCAAUAGCCUCACAUGAGGAUCACCCAUGUAGAAGGCGCGGAGA [AK-MS2ROC-r4-exclusion2-24] (Eterna round: R97, puzzle: Exclusion 2) | – | – | – | 0.119 µM | 0.0172 µM | –
ACAUGACAGCUAGGAUAUAAAUGACAUGAGGAUCACCCAUGUUGUCCCAUGUUGAGGAUCACCCAUUAGAAGGAGCCACCCAUG [Exclusion NG2 S1] (Eterna round: R96, puzzle: Exclusion NG 2) | – | – | – | 0.0928 µM | 0.0853 µM | 0.0492 µM
AGUUGGCGAGGAUAUACAUGAGGAUCACCCAUGUGAGAGAUACUAGUGAGGUCGGUUAGUAGAAGGCGCUGACA [Mat X3R4 m16] (Eterna round: R97, puzzle: Exclusion 3) | – | – | – | 0.344 µM | 0.0355 µM | –
UUUGAGUUAGGAUAUGCCAAGUUGCACAUGAGGAUCACCCAUGUGAGGUGCCUUACUUAAGCAGAAGGAACAAUAA [EX5 C.13] (Eterna round: R97, puzzle: Exclusion 5) | – | – | – | 0.0221 µM | 0.0198 µM | –
UUUAACAGAGGAUAUGCGAAUAAAUAAAACUUUUUUUUUUAACAUGAGGAUCACCCAUGUAGAAGGCUGAUAUU [Ex2 #23] (Eterna round: R97, puzzle: Exclusion 2) | – | – | – | 0.0349 µM | 0.0299 µM | –
UAUUAACAAGUAAGAUCCCACAUGAGGAUCACCCAUGUGCUCGUCUUAUAAGGUACUGUGACGAAAGUCACGGUACC [Sensor 3, v1 - 87] (Eterna round: R96, puzzle: Sensor v3, turn-off variant 1) | – | – | – | 0.0138 µM | 0.0169 µM | 0.367 µM
AGAGCACAUGAGGAUCACCCAUGUCAGGAUAUCGACUGAACAGCUUCGGCUGUUCAGUCGAGAAGGGACAAUUA [Brourdxlusion 7 - Jieux - Exclusion 1] (Eterna round: R97, puzzle: Exclusion 1) | – | – | – | 0.0194 µM | 0.035 µM | –

Sequence | apparent KD of MS2 coat protein [1] | apparent KD of MS2 coat protein [2] | apparent KD of MS2 coat protein [3] | apparent KD of MS2 coat protein (input ligand: FMN 200 uM) | apparent KD of MS2 coat protein (input ligand: none) | apparent KD of MS2 coat protein [4]
CGGCCGUUUGUAAGGAUAUAACUAGUUGCGACCAGUUAGAAGGUACAUGAGGAUCACCCAUGUCUUCCAGUGGC [Eternabot (L1) Solution 76] (Eterna round: R97, puzzle: Brourd's mod of Exclusion 4) | – | – | – | 0.0162 µM | 0.0151 µM | –
UCCGGACAUGAGGAUCACCCAUGUUAGGAUAUCUGAGGUGUGCCAGGAUCCUGGGCCCAGAGAAGGAAUAUGGC [Eternabot (L2) Solution 28] (Eterna round: R97, puzzle: Exclusion 1) | – | – | – | 0.0217 µM | 0.0198 µM | –
ACGAAACAUGAGGAUCACCCAUGUGAGGAUAUUAUGUUAUAAUACAUACUAUACAUAUUAAGAAGGCACAUUGG [Design #12] (Eterna round: R97, puzzle: Exclusion 1) | – | – | – | 0.138 µM | 0.0746 µM | –
GGUUGACAUGAGGAUCACCCAUGUGAGGAUAUGCGAGAGAAAAAAGUGAGGAAGGUUUGCAGAAGGCGCUGUCG [salish99-ex1_r3_008] (puzzle: Exclusion 1) | 0.0502 µM | 0.115 µM | 0.0812 µM | – | – | –
AUUAUAUAGAGAGGAUAUAGAAUAUUAUUUUAACAUGAGGAUCACCCAUGUAACCUUAUGUGUAGCUAGAAGGCUCAUUUAUUA [Title] (Eterna round: R96, puzzle: Exclusion NG 2) | – | – | – | – | – | 0.0339 µM
GAUCCUUCUGUUAGGAUAUGCUUUGGGCUUCCGCAGCAGAAGGAACAUGAGGAUCACCCAUGUCCAAUGCCAUC [salish99_bmex4_r4_505] (Eterna round: R97, puzzle: Brourd's mod of Exclusion 4) | – | – | – | 0.0461 µM | 0.0391 µM | –
UCCUGACAUGAGGAUCACCCAUGUGAGGAUAUGUGGAUCGAGUCAAAUCUCGUUCCGUGCAGAAGGCACAGGGC [EX1 A.21] (Eterna round: R97, puzzle: Exclusion 1) | – | – | – | 0.0249 µM | 0.019 µM | –
AUAAAUCAUGUAGGAUAUGCGUGGCGAAGCUAUGCAGAAGGACAUGAGGAUCACCCAUGUUCUUCCGUCUGCGUACAGACGGAA [Mat - Exclusion NG 1 - Mod of JL - D39] (Eterna round: R96, puzzle: Exclusion NG 1) | – | – | – | 0.297 µM | 0.0349 µM | 0.0285 µM
ACGCAUUGCCUUUGGUAGUGCGUAACAUGAGGAUCACCCAUGUAGGAUAUGGUAGGCUUUGCUUACCAGAAGGACAUUAUAAUC [Mat - Exclusion NG 3 - Mod of JL - D8] (Eterna round: R96, puzzle: Exclusion NG 3) | – | – | – | 0.065 µM | 0.0251 µM | 0.0185 µM
GCACGGAGUGUAGGAUAUUAGUGCGAUUAGCACUGAGAAGGACAUGAGGAUCACCCAUGUUCCUCAAUAAUUAGCCUUCCGUGC [Eli exng1 - 038] (Eterna round: R96, puzzle: Exclusion NG 1) | – | – | – | 0.0152 µM | 0.0157 µM | 0.00961 µM
UGAUCUUUUGUUAGGAUAUGCUGGCUGAAAAGUCAGCAGAAGGGACAUGAGGAUCACCCAUGUUCUCUCUUUUU [Magic-09] (puzzle: Brourd's mod of Exclusion 4) | – | 0.0103 µM | – | – | – | –
CUUAGCCUAAAAUCACGCAAGCUCUUUGCUUGUCUUAAGACAUGAGGAUCACCCAUGUCCGGGCUGAACUUAUGGAA [Qugegele] (puzzle: Sensor v3, turn-off variant 2) | 0.0199 µM | 0.0249 µM | 0.021 µM | – | – | –
GAGAGCAACGUCAGGAUAUUUAACCAAAACGCGGUAGAGAAGGGACAUGAGGAUCACCCAUGUGACUUCGGGCA [Eternabot (L1) Solution 83] (Eterna round: R97, puzzle: Brourd's mod of Exclusion 4) | – | – | – | 0.0155 µM | 0.0168 µM | –
AAACAAACGGGAGGAUAUCGACAUAUUCAACUGCGAGAAGGCCCAAAAGACAUGAGGAUCACCCAUGUAAACCGGGUGAGAAAU [Rimabi] (Eterna round: R96, puzzle: Exclusion NG 1) | – | – | – | 0.934 µM | 0.215 µM | 0.185 µM
CCAUCGAGUGUGAGGAUAUGCUGGUCCUUGGAUCAGCAGAAGGCACAUGAGGAUCACCCAUGUGGAAACGGUGG [Mat - Exclusion 4 - JL Mod - D77] (puzzle: Brourd's mod of Exclusion 4) | – | 0.0277 µM | – | – | – | –
AUGAGGUUAGGAUAUACAUGAGGAUCACCCAUGUUGAAAGGUUAGAUAGGAGAAGAUAGUAGAAGGAACAAAGA [JR_Exclu3_Sub053] (puzzle: Exclusion 3) | 0.0318 µM | 0.0372 µM | 0.0431 µM | – | – | –
